Measurements from patent US20140369964A1 (GLYTECH, published 2014).

T1: IFN-α/β receptor 2 (UniProt P48551 27-243, limits assumed)
T1 sequence (looked up): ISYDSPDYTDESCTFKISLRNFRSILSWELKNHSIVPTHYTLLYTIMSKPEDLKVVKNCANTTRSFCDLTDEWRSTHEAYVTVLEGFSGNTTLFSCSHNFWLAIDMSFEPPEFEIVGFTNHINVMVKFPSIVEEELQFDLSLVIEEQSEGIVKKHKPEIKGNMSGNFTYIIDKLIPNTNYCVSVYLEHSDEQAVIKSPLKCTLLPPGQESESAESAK


Biological target: T1, IFN-α/β receptor 2
Assay: SPR (ProteOn XPR36), receptor amine-coupled to GLM chip, IFN-β as analyte at 0.31-25 nM
Procedure: The binding affinity of the non-heated or heat-treated chemically synthesized IFN-β against IFN-α/β receptor 2 was measured with ProteOn XPR36 (Bio-rad) employing SPR (Surface Plasmon Resonance technology).
Specifically, 10 μg/mL of IFN-α/β receptor 2 (10 mM acetic acid buffer, pH 4.5) was fixed to a GLM chip (Bio-rad) according to instructions by employing an amine coupling kit (Bio-rad) and flowing 0.005% Tween 20/PBS at a flow rate of 30 μL/min. The non-heated disialo sugar chain attached polypeptide (10) prepared in Example 3, or the heat-treated disialo sugar chain attached polypeptide obtained by subjecting the disialo sugar chain attached polypeptide heat-treated in the above 9-1. to the de-Acm step, the benzyl group deprotection step, and the folding step described in the above 3-4.-3-6. were adjusted to 0.31-25 nM with 0.1% BSA and 2 mM EDTA/PBS, and added to the chip at a flow rate 50 of μL/min. The analysis with glycosylated polypeptide (10) was carried out at each of five concentrations of 0.31 nM, 0.93 nM, 2.8 nM, 8.3 nM, and 25 nM. The binding constant (ka), the dissociation constant (kd), and the binding dissociation constant (Kd) were analyzed with ProteOn Manager software. The results thereof are shown in FIG. 38, FIG. 39, and Table 1.

Binder	Kd	koff	kon
non-heated disialo sugar chain attached polypeptide (10) (ligand, disialo sugar chain on Asn at position 80; folded, with a mass loss of 2 Da after folding (disulfide bond, Cys 31-Cys 141 in interferon β), also called glycosylated polypeptide (10); disialo IFN-β) MSYNLLGFLQRSSNFQCQKLLWQLNGRLEYCLKDRMNFDIPEEIKQLQQFQKEDAALTIYEMLQNIFAIFRQDSSSTGWNETIVENLLANVYHQINHLKTVLEEKLEKEDFTRGKLMSSLHLKRYYGRILHYLKAKEYSHCAWTIVRVEILRNFYFINRLTGYLRN	0.49 nM	0.0027 s⁻¹	5.5e+06 M⁻¹ s⁻¹
heat-treated disialo sugar chain attached polypeptide (ligand, disialo sugar chain on Asn at position 80; folded as in step 3-6, also called heat-treated chemically synthesized IFN-β) MSYNLLGFLQRSSNFQCQKLLWQLNGRLEYCLKDRMNFDIPEEIKQLQQFQKEDAALTIYEMLQNIFAIFRQDSSSTGWNETIVENLLANVYHQINHLKTVLEEKLEKEDFTRGKLMSSLHLKRYYGRILHYLKAKEYSHCAWTIVRVEILRNFYFINRLTGYLRN	0.53 nM	0.0023 s⁻¹	4.3e+06 M⁻¹ s⁻¹
